Experimental data as given in publication doi:10.1101/2021.12.03.471045 (bioRxiv, 2021).

Target: early pandemic (Wuhan) SARS-CoV-2 RBD (SARS-CoV-2, UniProt P0DTC2)
Assay: crystal structure
Settings: both partners purified

B1: mAb 158 Fab (Fab, V domains shown)
VH: EVQLLESGGDLIQPGGSLRLSCAASGVTVSSNYMSWVRQAPGKGLEWVSIIYPGGSTFYADSVKGRFTISRDNSKNTLYLQMHSLRAEDTAVYYCARDLGSGDMDVWGKGTTVTVSS
VL: DIVMTQSPSFLSASVGDRVTITCRASQGISSYLAWYQQKPGKAPKLLIQAASTLQSGVPSRFSGSGSGTEFTLTISSLQPEDFATYYCQQLNSYRYTFGQGTKVEIK
Q: Does B1 bind?
A: binds

B2: mAb 58 Fab (Fab, V domains shown)
VH: QVQLVESGGGLVQPGRSLRLSCAASGFTFDDYAMHWVRQPPGKGLEWVSGVSWNSGTIGYADSVKGRFIISRDNAKNSLYLQMNSLKAEDTALYYCAREVGGTFGVLISREGGLDYWGQGTLVTVSS
VL: SYELTQPPSVSVAPGQTARITCGGNTIGSKSVHWYQQRPGQAPVLVVYDDSDRPSGIPERFSGSNSGNTATLTISRVEAGDEADYYCQVWDSSSDRVVFGGGTKLTVL
Q: Does B2 bind?
A: binds
